Source: the RNAGym collection of RNA variant scans (doi:10.7554/elife.80360)

B1: Twister Ribozyme (parent)
chain: AACACUGCCAAUGCCGGUCCCAAGCCCGGAUAAAAGUGGAGGGGGCGG

Variants of: B1
Assay: self-cleavage, relative activity (ratio to wild type); higher = more cleavage; co-transcriptional

Variant	self-cleavage
AACACUGCCAAUGCAGGUCCCAAGCCCGGAUCAAAGUGGAGGGGGCGG [C15A A32C]	0.529
AACACUGCCAAUGCAGGUCCCAAGCCCGGAUUAAAGUGGAGGGGGCGG [C15A A32U]	0.667
AACACUGCCAAUGCAGGUCCCAAGCCCGGAUGAAAGUGGAGGGGGCGG [C15A A32G]	0.583
AACACUGCCAAUGCAGGUCCCAAGCCCGGAUAAAUGUGGAGGGGGCGG [C15A A35U]	0.774
AACACUGCCAAUGCAGGUCCCAAGCCCGGAUAAACGUGGAGGGGGCGG [C15A A35C]	0.546
AACACUGCCAAUGCAGGUCCCAAGCCCGGAUAAAGGUGGAGGGGGCGG [C15A A35G]	0.285
AACACUGCCAAUGCAGGUCCCAAGCCCGGAUAAAAGUGGAGGGGCCGG [C15A G45C]	0.352
AACACUGCCAAUGCAGGUCCCAAGCCCGGAUAAAAGUGGAGGGGACGG [C15A G45A]	0.478
AACACUGCCAAUGCAGGUCCGAAGCCCGGAUAAAAGUGGAGGGGGCGG [C15A C21G]	0.0777
AACACUGCCAAUGCAGGUCCCAAGCCCGGAUAGAAGUGGAGGGGGCGG [C15A A33G]	0.578
AACACUGCCAAUGCAGGUCCCAAGCCCGGAUAUAAGUGGAGGGGGCGG [C15A A33U]	0.541
AACACUGCCAAUGUCGGUCCCAAGCCCGGAUAAAAGUGAAGGGGGCGG [C14U G39A]	0.509
AACACUGCCAAUGUCGGUCCCAAGCCCGGAUAAAAGUGUAGGGGGCGG [C14U G39U]	0.28
AACACUGCCAAUGUCGGUCCCAAGCCCGGAUAAAAGUGCAGGGGGCGG [C14U G39C]	0.198
AACACUGCCAAUGUGGGUCCCAAGCCCGGAUAAAAGUGGAGGGGGCGG [C14U C15G]	0.36
AACACUGCCAAUGCAGGUCCCAAGCCCGGAUAAAAGUGGAGGGGGAGG [C15A C46A]	0.565
AACACUGCCAAUGCAGGUCCCAAGCCCGGAUAAAAGUGGAGGGGGCUG [C15A G47U]	0.332
AACACUGCCAAUGCAGGUCCCAAGCCCGGAUAAAAGUGGAGGGGGCCG [C15A G47C]	0.253
AACACUGCCAAUGUCGGUCCCAAGCCCGGACAAAAGUGGAGGGGGCGG [C14U U31C]	1.22
AACACUGCCAAUGCAGGUCCCAAACCCGGAUAAAAGUGGAGGGGGCGG [C15A G24A]	0.0695
AACACUGCCAAUGCAGGUCCCAACCCCGGAUAAAAGUGGAGGGGGCGG [C15A G24C]	0.0841
AACACUGCCAAUGUCGGUCCCAAGCCCGGAUAAAAGUGGAGUGGGCGG [C14U G42U]	0.486
AACACUGCCAAUGUCGGUCCCAAGCCCGGAUAAAAGUGGAGCGGGCGG [C14U G42C]	0.59
AACACUGCCAAUGUCGGCCCCAAGCCCGGAUAAAAGUGGAGGGGGCGG [C14U U18C]	0.594
AACACUGCCAAUGUCGGACCCAAGCCCGGAUAAAAGUGGAGGGGGCGG [C14U U18A]	0.635
AACACUGCCAAUGCAGGUCCCCAGCCCGGAUAAAAGUGGAGGGGGCGG [C15A A22C]	0.533
AACACUGCCAAUGGCGGUCCCAAGCCCGGAUAAAAGGGGAGGGGGCGG [C14G U37G]	0.0706

Variant	self-cleavage
AACACUGCCAAUGCAGGUCCCAAGCCCGGAUAAAAAUGGAGGGGGCGG [C15A G36A]	0.165
AACACUGCCAAUGCAGGUCCCAAGCCCGGAUAAAAGUGGAGCGGGCGG [C15A G42C]	0.182
AACACUGCCAAUGCAGGUCCCAAGCCCGGAUAAAAGUGGAGUGGGCGG [C15A G42U]	0.14
AACACUGCCAAUGCAGGUCCCAAGCCCGGAUAAAAGUGGUGGGGGCGG [C15A A40U]	0.116
AACACUGCCAAUGUCGGUCCAAAGCCCGGAUAAAAGUGGAGGGGGCGG [C14U C21A]	0.108
AACACUGCCAAUGUCGGUCCUAAGCCCGGAUAAAAGUGGAGGGGGCGG [C14U C21U]	0.141
AACACUGCCAAUGUCGGUCCCAAGCCCGGAUAAAAGUGGAGGGGGCGC [C14U G48C]	1.26
AACACUGCCAAUGUCGGUCCCAAGCCCGGAUAAAAGUGGAGGGGGCGA [C14U G48A]	1.1
AACACUGCCAAUGUCGGUCCCAAGCCCGGAUAAAACUGGAGGGGGCGG [C14U G36C]	0.464
AACACUGCCAAUGUCGGUCCCAAGCCCGGAUAAAAUUGGAGGGGGCGG [C14U G36U]	0.421
AACACUGCCAAUGUCGGUCCCAAGCCCGGAUAAAAGUGGAGGUGGCGG [C14U G43U]	0.526
AACACUGCCAAUGUCGGUCCCAAGCCCGGAUAAAAGUGGAGGCGGCGG [C14U G43C]	0.227
AACACUGCCAAUGUCGGUCCCAAGCCCGGAUAAAAGUGGAGGAGGCGG [C14U G43A]	0.369
AACACUGCCAAUGUCGGUCCCCAGCCCGGAUAAAAGUGGAGGGGGCGG [C14U A22C]	1.15
AACACUGCCAAUGUCGGUCCCGAGCCCGGAUAAAAGUGGAGGGGGCGG [C14U A22G]	0.319
AACACUGCCAAUGUCGGUCCCACGCCCGGAUAAAAGUGGAGGGGGCGG [C14U A23C]	0.51
AACACUGCCAAUGUCGGUCCCAGGCCCGGAUAAAAGUGGAGGGGGCGG [C14U A23G]	0.666
AACACUGCCAAUGUCGGUCCCAUGCCCGGAUAAAAGUGGAGGGGGCGG [C14U A23U]	0.722
AACACUGCCAAUGCAGCUCCCAAGCCCGGAUAAAAGUGGAGGGGGCGG [C15A G17C]	0.0439
AACACUGCCAAUGUCUGUCCCAAGCCCGGAUAAAAGUGGAGGGGGCGG [C14U G16U]	0.778
AACACUGCCAAUGUCGGUCCCAAGCCCGGAUAAAAGUCGAGGGGGCGG [C14U G38C]	0.909
AACACUGCCAAUGUCGGUCCCAAGCCCGGAUAAAAGUAGAGGGGGCGG [C14U G38A]	1.02
AACACUGCCAAUGCAGGUCCCAAGCCCGGAAAAAAGUGGAGGGGGCGG [C15A U31A]	0.706
AACACUGCCAAUGUCGGUCCCAAGCCCCGAUAAAAGUGGAGGGGGCGG [C14U G28C]	1.01
AACACUGCCAAUGUCGGUCCCAAGCCCAGAUAAAAGUGGAGGGGGCGG [C14U G28A]	1.09
AACACUGCCAAUGCAGGUCCCAAGCCCGGAUAAAAGUGGACGGGGCGG [C15A G41C]	0.16
AACACUGCCAAUGCAGGUCCCAAGCCCGGAUAAAAGUGGAAGGGGCGG [C15A G41A]	0.189
